In paper PMC11865472 one finds Kd data, which are given here for 21 substances.

One assay concerns the target biotin-TGF-β2 (minimally biotinylated TGF-β2) (human). The assay can be described thus: SPR; BIAcore X100; minimally biotinylated TGF-β2 captured on a neutravidin CM5 chip, max 50 RU; zfBGO variants injected, 2-fold dilution series (500 or 1000 - 31.3 nM); 10 mM CHES, 150 mM NaCl, 3 mM EDTA, 0.01% P20, pH 8.6; 100 µl/min; 1:1 kinetic model; two consecutive repeats.
Details: not given
For orientation: SPR reads the build-up and loss of mass on a sensor chip optically.
For orientation: Kd means a measure of binding affinity in units of concentration. “zebrafish betaglycan orphan domain (zfBGO), wild type (domain or fragment)”: the Kd came out at 38 nM.
zfBGO K316A (domain or fragment) gave an equilibrium dissociation constant (Kd) of 135 nM.
Still for that read-out and setting: next, zfBGO K319A (domain or fragment): 175 nM; zfBGO L208A (domain or fragment): 88 nM.

The next assay addresses TGF-β2 (growth factor domain, wild type) (human). The assay can be described thus: SPR; TGF-β2 immobilised on the chip surface; ratBGO, zfBGO, ratBGO-zfBL or ratBGO-Y248A injected, 2-fold dilution series 500 - 31.3 nM; three consecutive repeats.
Details: not given
“ratBGO-zfBL (ratBGO with the shortened binding loop of zfBGO) (from UniProt P26342 31-360) (domain or fragment)” had a Kd of 88 nM.
Same read-out and setting: with “zebrafish betaglycan orphan domain (zfBGO), wild type (domain or fragment)” the figure was 86 nM.

The target in another assay is inhibin A (InhA), mature heterodimer (UniProt P05111). Briefly: SPR; TGF-β2 (b) or InhA (c) immobilised; BGZP-C mutants injected, 2-fold serial dilutions 500 - 15.6 nM; three consecutive repeats.
inhibin A (InhA), mature heterodimer, sequence (P05111 233-366, chain 1 of 2): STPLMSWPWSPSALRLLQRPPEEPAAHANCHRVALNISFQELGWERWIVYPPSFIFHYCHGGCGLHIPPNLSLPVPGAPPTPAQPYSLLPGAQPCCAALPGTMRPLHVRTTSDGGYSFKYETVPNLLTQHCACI
inhibin A (InhA), mature heterodimer, sequence (P08476 311-426, chain 2 of 2, further chain): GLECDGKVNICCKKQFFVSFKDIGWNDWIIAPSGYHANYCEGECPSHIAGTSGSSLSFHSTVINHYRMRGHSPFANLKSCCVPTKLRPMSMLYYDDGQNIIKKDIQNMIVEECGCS
Details: not given
Substance BGZP-C I161A (domain or fragment) had a Kd of 1080 nM.
BGZP-C I161Y (domain or fragment) registered a Kd of 815 nM.
Turning to BGZP-C N82A (domain or fragment), the Kd was 968 nM.
The same measure, in the same setting: next, BGZP-C N82Y (domain or fragment): 883 nM.

Another assay deals with biotinylated TGF-β2 homodimer. Briefly: SPR. The note with it: surface: TGF-β2; parent: est. 33; read off a plot.
Consider “zebrafish betaglycan orphan domain (zfBGO) K316A”, for which the equilibrium dissociation constant (Kd) is 130 nM.
Same read-out and setting: next, “zebrafish betaglycan orphan domain (zfBGO) K319A”: 180 nM.

The same assay, now with this note: surface: TGF-β2; parent: est. 160; read off a plot.
“rat betaglycan ZP-C domain (BG_(ZP-C)), mammalian-expressed D88A”: the equilibrium dissociation constant (Kd) was found to be 230 nM.
With “rat betaglycan ZP-C domain (BG_(ZP-C)), mammalian-expressed E130A”, the Kd came to 1400 nM.
Same read-out and setting: with “rat betaglycan ZP-C domain (BG_(ZP-C)), mammalian-expressed K86A” the figure was 70 nM.
Still for that read-out and setting: next, “rat betaglycan ZP-C domain (BG_(ZP-C)), mammalian-expressed L143A”: 130 nM; “rat betaglycan ZP-C domain (BG_(ZP-C)), mammalian-expressed M164A”: 320 nM; “rat betaglycan ZP-C domain (BG_(ZP-C)), mammalian-expressed M165A”: 330 nM.
Turning to “rat betaglycan ZP-C domain (BG_(ZP-C)), mammalian-expressed Q166A”, the Kd stood at 200 nM.
With “rat betaglycan ZP-C domain (BG_(ZP-C)), mammalian-expressed S155A”, the Kd is 290 nM.
On the same count and under the same terms, with “rat betaglycan ZP-C domain (BG_(ZP-C)), mammalian-expressed W162A” the figure was 730 nM; with “rat betaglycan ZP-C domain (BG_(ZP-C)), mammalian-expressed W162A; M165A”, 1300 nM.

The target of the next assay is TGF-β2 (Y50A, L51A) (human). The assay can be described thus: SPR; BIAcore T200; TGF-β2 WT or TGF-β2 mutants amine-coupled (EDC-NHS) to a CM4 chip, max 400 RU; zfBGO WT or BGZP-C WT injected, 2-fold dilution series 250 - 15.6 nM; 10 mM CHES, 150 mM NaCl, 3 mM EDTA, 0.01% P20, pH 8.0; 100 µl/min; 1:1 kinetic model with drift; three consecutive repeats.
Details: not given
In the case of “zebrafish betaglycan orphan domain (zfBGO), wild type (domain or fragment)”, the Kd was determined as 205 nM.

Another assay deals with TGF-β2 (growth factor domain, wild type) (human). The description is as above.
Details: not given
Take “zebrafish betaglycan orphan domain (zfBGO), wild type (domain or fragment)”: the Kd came to 148 nM.
